Test results reported in PMC8135088.

Tests used:
[1] = substrate: OC[C@H]1OC(O)[C@H](O)[C@@H](O)[C@@H]1O; assay: purified protein; format: biochemical, Phanerodontia chrysosporium; conditions: 50 mM sodium phosphate pH 7.0, electron acceptor O2
[2] = substrate: OC[C@H]1OC[C@H](O)[C@@H](O)[C@@H]1O; assay: purified protein; format: biochemical, Phanerodontia chrysosporium; conditions: 50 mM sodium phosphate pH 7.0, electron acceptor O2

B1: PcPOX (pyranose 2-oxidase from Phanerochaete chrysosporium) (Phanerodontia chrysosporium) (protein)
chain: MFLDTTPFRADEPYDVFIAGSGPIGATFAKLCVDANLRVCMVEIGAADSFTSKPMKGDPNAPRSVQFGPGQVPIPGYHKKNEIEYQKDIDRFVNVIKGALSTCSIPTSNNHIATLDPSVVSNSLDKPFISLGKNPAQNPFVNLGAEAVTRGVGGMSTHWTCATPEFFAPADFNAPHRERPKLSTDAAEDARIWKDLYAQAKEIIGTSTTEFDHSIRHNLVLRKYNDIFQKENVIREFSPLPLACHRLTDPDYVEWHATDRILEELFTDPVKRGRFTLLTNHRCTKLVFKHYRPGEENEVDYALVEDLLPHMQNPGNPASVKKIYARSYVVACGAVATAQVLANSHIPPDDVVIPFPGGEKGSGGGERDATIPTPLMPMLGKYITEQPMTFCQVVLDSSLMEVVRNPPWPGLDWWKEKVARHVEAFPNDPIPIPFRDPEPQVTIKFTEEHPWHVQIHRDAFSYGAVAENMDTRVIVDYRFFGYTEPQEANELVFQQHYRDAYDMPQPTFKFTMSQDDRARARRMMDDMCNIALKIGGYLPGSEPQFMTPGLALHLAGTTRCGLDTQKTVGNTHCKVHNFNNLYVGGNGVIETGFAANPTLTSICYAIRASNDIIAKFGRHRG
Km [1]: 0.978 ± 0.156 mM | kcat [1]: 115 ± 2 s⁻¹ | kcat/Km [1]: 120000 M⁻¹ s⁻¹ | Km [2]: 18.9 ± 4.4 mM | kcat [2]: 82.5 ± 10.3 s⁻¹ | kcat/Km [2]: 4400 M⁻¹ s⁻¹

B2: PcPOX (pyranose 2-oxidase from Phanerochaete chrysosporium) (Phanerodontia chrysosporium; A551N) (protein)
chain: MFLDTTPFRADEPYDVFIAGSGPIGATFAKLCVDANLRVCMVEIGAADSFTSKPMKGDPNAPRSVQFGPGQVPIPGYHKKNEIEYQKDIDRFVNVIKGALSTCSIPTSNNHIATLDPSVVSNSLDKPFISLGKNPAQNPFVNLGAEAVTRGVGGMSTHWTCATPEFFAPADFNAPHRERPKLSTDAAEDARIWKDLYAQAKEIIGTSTTEFDHSIRHNLVLRKYNDIFQKENVIREFSPLPLACHRLTDPDYVEWHATDRILEELFTDPVKRGRFTLLTNHRCTKLVFKHYRPGEENEVDYALVEDLLPHMQNPGNPASVKKIYARSYVVACGAVATAQVLANSHIPPDDVVIPFPGGEKGSGGGERDATIPTPLMPMLGKYITEQPMTFCQVVLDSSLMEVVRNPPWPGLDWWKEKVARHVEAFPNDPIPIPFRDPEPQVTIKFTEEHPWHVQIHRDAFSYGAVAENMDTRVIVDYRFFGYTEPQEANELVFQQHYRDAYDMPQPTFKFTMSQDDRARARRMMDDMCNIALKIGGYLPGSEPQFMTPGLNLHLAGTTRCGLDTQKTVGNTHCKVHNFNNLYVGGNGVIETGFAANPTLTSICYAIRASNDIIAKFGRHRG
Km [1]: 12.1 ± 0.3 mM | kcat [1]: 0.496 ± 0.021 s⁻¹ | kcat/Km [1]: 41 M⁻¹ s⁻¹ | Km [2]: 65.7 ± 4.5 mM | kcat [2]: 0.253 ± 0.006 s⁻¹ | kcat/Km [2]: 3.8 M⁻¹ s⁻¹

B3: PcPOX (pyranose 2-oxidase from Phanerochaete chrysosporium) (Phanerodontia chrysosporium; A551L) (protein)
chain: MFLDTTPFRADEPYDVFIAGSGPIGATFAKLCVDANLRVCMVEIGAADSFTSKPMKGDPNAPRSVQFGPGQVPIPGYHKKNEIEYQKDIDRFVNVIKGALSTCSIPTSNNHIATLDPSVVSNSLDKPFISLGKNPAQNPFVNLGAEAVTRGVGGMSTHWTCATPEFFAPADFNAPHRERPKLSTDAAEDARIWKDLYAQAKEIIGTSTTEFDHSIRHNLVLRKYNDIFQKENVIREFSPLPLACHRLTDPDYVEWHATDRILEELFTDPVKRGRFTLLTNHRCTKLVFKHYRPGEENEVDYALVEDLLPHMQNPGNPASVKKIYARSYVVACGAVATAQVLANSHIPPDDVVIPFPGGEKGSGGGERDATIPTPLMPMLGKYITEQPMTFCQVVLDSSLMEVVRNPPWPGLDWWKEKVARHVEAFPNDPIPIPFRDPEPQVTIKFTEEHPWHVQIHRDAFSYGAVAENMDTRVIVDYRFFGYTEPQEANELVFQQHYRDAYDMPQPTFKFTMSQDDRARARRMMDDMCNIALKIGGYLPGSEPQFMTPGLLLHLAGTTRCGLDTQKTVGNTHCKVHNFNNLYVGGNGVIETGFAANPTLTSICYAIRASNDIIAKFGRHRG
Km [1]: 3.44 ± 1.15 mM | kcat [1]: 0.00659 ± 0.00129 s⁻¹ | kcat/Km [1]: 1.9 M⁻¹ s⁻¹ | Km [2]: 26.9 ± 3.5 mM | kcat [2]: 0.00696 ± 0.00027 s⁻¹ | kcat/Km [2]: 0.26 M⁻¹ s⁻¹
